The values below come from the supplement of paper PMC9732359.

The data set is described as follows: protein stability index of a GFP-peptide fusion (yeast GPS) (PSI 1-4); higher = more stable; sorted into four equal gates, so the index is relative within each strain. The method, boiled down:
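For each peptide, the protein stability index sums the read frequency in every gate after multiplying it by the gate number. Read frequencies came from plasmids that were PCR-amplified from each gate and Illumina-sequenced, with reads assigned to strains by barcodes. The gates were four equal bins of GFP/Cherry fluorescence ratio applied to mid-log yeast in leucine-free medium carrying a pooled library of tiled 17-residue yeast protein peptides fused downstream of GFP on a Cherry-expressing plasmid.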

± gives the uncertainty stated by the source.

Sequence NAEATKEEFSSAENRDE [CSE2] displayed a protein stability index (doa10∆) of 3.14 ± 0.082, a protein stability index (pdr5∆) of 3.25 ± 0.086, a protein stability index (san1∆) of 3.35 ± 0.059 and a protein stability index (ubr1∆) of 3.28 ± 0.069.

As for HRLIATHTNLERDEQKR [SNF2], the protein stability index runs as follows: (doa10∆) 3.38 ± 0.069; (pdr5∆) 3.25 ± 0.074; (san1∆) 3.01 ± 0.11; (ubr1∆) 3.32 ± 0.048.

Regarding DIVQYHLELYTSQYGTP [PRE3], the protein stability index by setting is: (doa10∆) 2.1 ± 0.063; (pdr5∆) 1.74 ± 0.058; (san1∆) 1.77 ± 0.07; (ubr1∆) 2 ± 0.042.

As to INFKSREAIRPGHEMED [AAR2], the protein stability index was 3.33 ± 0.097 (doa10∆), 3.28 ± 0.091 (pdr5∆), 3.44 ± 0.058 (san1∆) and 3.38 ± 0.084 (ubr1∆).

Regarding KQGFVIYRVRVRRGNRK [RPL15A], the protein stability index came out at 1.17 ± 0.13 (doa10∆), 1.96 ± 0.11 (pdr5∆), 1.29 ± 0.26 (san1∆) and 2.26 ± 0.089 (ubr1∆).

With LPNEMSQNDGFVIIRGS [RPO31], the protein stability index is, setting by setting: (doa10∆) 3.07 ± 0.19; (pdr5∆) 3.13 ± 0.16; (san1∆) 3.23 ± 0.18.

With QKSVSLLSSESNIPTLI [YDL116W/NUP84], the protein stability index is, setting by setting: (doa10∆) 2.73 ± 0.056; (pdr5∆) 2.69 ± 0.065; (san1∆) 2.8 ± 0.039; (ubr1∆) 2.67 ± 0.05.

The sequence SFLKVDPDLGLDLMFDE [YJL039C/NUP192] displayed a protein stability index (doa10∆) of 3.3 ± 0.083, a protein stability index (pdr5∆) of 3.3 ± 0.09, a protein stability index (san1∆) of 3.04 ± 0.087 and a protein stability index (ubr1∆) of 3.06 ± 0.091.

For KQIDIPNFNVEIMQQKF [ECM29], the protein stability index runs as follows: (doa10∆) 2.4 ± 0.25; (pdr5∆) 2.5 ± 0.16; (san1∆) 3.03 ± 0.11; (ubr1∆) 3.11 ± 0.097.

For NKDLSELVIRLEKDAAD [YIL149C/MLP2], the protein stability index reads like this: (doa10∆) 3.05 ± 0.078; (pdr5∆) 3.15 ± 0.084; (san1∆) 3.2 ± 0.061; (ubr1∆) 3.15 ± 0.069.

For the sequence YTVNVVDVFAMPQSGTG [RPN11], the protein stability index is, setting by setting: (doa10∆) 3.08 ± 0.088; (pdr5∆) 3.28 ± 0.1; (san1∆) 3.3 ± 0.063; (ubr1∆) 3.07 ± 0.077.

KMPGGFTITVARKYLQT [FAS2]: the protein stability index is 1.24 ± 0.039 (doa10∆), 1.47 ± 0.065 (pdr5∆), 1.21 ± 0.084 (san1∆) and 1.27 ± 0.052 (ubr1∆).

In the case of GSARTRWEMEAFGEFSL [FAS2], the protein stability index (doa10∆) came to 1.78 ± 0.072, the protein stability index (pdr5∆) was determined as 2.92 ± 0.13, the protein stability index (san1∆) was found to be 2.93 ± 0.098 and the protein stability index (ubr1∆) was determined as 2.24 ± 0.098.

For ITKEVTQVNILKENNAI [YIL149C/MLP2], the protein stability index came out at 2.91 ± 0.057 (doa10∆), 3.14 ± 0.065 (pdr5∆), 2.87 ± 0.085 (san1∆) and 3.17 ± 0.044 (ubr1∆).

On to DSRLSRKQIDETQVLVS [BRR2], for which the protein stability index is 1.61 ± 0.055 (doa10∆), 1.83 ± 0.073 (pdr5∆), 1.82 ± 0.072 (san1∆) and 2.13 ± 0.041 (ubr1∆).

Consider ILNLLNILTTHLSHPGT [ECM29], for which the protein stability index (doa10∆) came to 2.03 ± 0.042, the protein stability index (pdr5∆) was 1.75 ± 0.04, the protein stability index (san1∆) amounted to 1.65 ± 0.05 and the protein stability index (ubr1∆) is 1.76 ± 0.037.

Take YINVNPQEETITFLIEK [ECM29]: the protein stability index (doa10∆) was found to be 3.23 ± 0.095, the protein stability index (pdr5∆) amounted to 2.96 ± 0.089, the protein stability index (san1∆) is 2.91 ± 0.064 and the protein stability index (ubr1∆) was determined as 3.17 ± 0.06.

With ISMLVTQLQRGGTSDMN [CSI1], the protein stability index was found to be 3.19 ± 0.1 (doa10∆), 2.53 ± 0.12 (pdr5∆), 2.5 ± 0.11 (san1∆) and 2.53 ± 0.067 (ubr1∆).

For DELILPLPSHALTVQEV [YDL116W/NUP84], the protein stability index by setting is: (doa10∆) 2.4 ± 0.038; (pdr5∆) 2.56 ± 0.036; (san1∆) 2.15 ± 0.057; (ubr1∆) 2.44 ± 0.025.

Consider KNMFEKKASKVTVDADI [ISW2], for which the protein stability index runs as follows: (doa10∆) 2.44 ± 0.063; (pdr5∆) 2.87 ± 0.059; (san1∆) 2.83 ± 0.055; (ubr1∆) 2.77 ± 0.054.

For EIEVDEMEVDAEGEEVE [RPN1], the protein stability index came out at 3.52 ± 0.084 (doa10∆), 3.68 ± 0.12 (pdr5∆), 3.52 ± 0.082 (san1∆) and 3.49 ± 0.067 (ubr1∆).

Regarding VAIACDLRLGSQSLGVS [PUP3], the protein stability index is, setting by setting: (pdr5∆) 2.75 ± 0.26; (san1∆) 2.85 ± 0.17.

As for SPMLKRIKITANNNMND [GRR1], the protein stability index is, setting by setting: (doa10∆) 2.36 ± 0.055; (pdr5∆) 2.4 ± 0.078; (san1∆) 1.77 ± 0.079; (ubr1∆) 2.71 ± 0.048.

In the case of LLTAKHGMTLRESFEDN [RPO21], the protein stability index is, setting by setting: (doa10∆) 2.96 ± 0.13; (pdr5∆) 2.56 ± 0.087; (san1∆) 2.6 ± 0.086; (ubr1∆) 1.55 ± 0.092.

Turning to GSYNAFEPASRLQGIKL [COR1], the protein stability index runs as follows: (doa10∆) 2.95 ± 0.053; (pdr5∆) 3.16 ± 0.068; (san1∆) 3.15 ± 0.063; (ubr1∆) 2.99 ± 0.073.

With VLIKMVKMLRDNPGYKA [SIR3], the protein stability index reads like this: (doa10∆) 3.34 ± 0.077; (pdr5∆) 3.47 ± 0.068; (san1∆) 3.47 ± 0.039; (ubr1∆) 3.33 ± 0.036.

Take ARIIRSELLARDIFQED [RGR1]: the protein stability index stood at 2.26 ± 0.11 (doa10∆), 2.4 ± 0.087 (pdr5∆), 2.14 ± 0.12 (san1∆) and 2.19 ± 0.096 (ubr1∆).

For the sequence CKQFPKLSCIQLNCIDT [SRB8], the protein stability index by setting is: (doa10∆) 1.54 ± 0.041; (pdr5∆) 1.95 ± 0.039; (san1∆) 1.52 ± 0.043; (ubr1∆) 1.66 ± 0.026.

In the case of RAIILERNAAYQKEYET [RPL7A], the protein stability index by setting is: (doa10∆) 2.59 ± 0.067; (pdr5∆) 2.81 ± 0.05; (san1∆) 2.62 ± 0.05; (ubr1∆) 2.89 ± 0.079.

For TEKLSNGFSFTKFNHNK [YOR098C/NUP1], the protein stability index reads like this: (doa10∆) 3.02 ± 0.089; (pdr5∆) 3.14 ± 0.064; (san1∆) 3.02 ± 0.037; (ubr1∆) 2.94 ± 0.063.

In the case of FVRGDSKIFRFQNSKSA [RPL24A], the protein stability index turned out to be 2.31 ± 0.053 (doa10∆), 2.63 ± 0.057 (pdr5∆), 2.31 ± 0.059 (san1∆) and 2.43 ± 0.051 (ubr1∆).

In turn, MSNVVQARDNSQVFGVA [RPS14A] returned a protein stability index (doa10∆) of 1.89 ± 0.06, a protein stability index (pdr5∆) of 2.11 ± 0.056, a protein stability index (san1∆) of 1.94 ± 0.083 and a protein stability index (ubr1∆) of 2.05 ± 0.041.

As to SGLPTCDYYNTFLLNNK [RPN2], the protein stability index is, setting by setting: (doa10∆) 2.94 ± 0.069; (pdr5∆) 2.96 ± 0.071; (san1∆) 2.68 ± 0.062; (ubr1∆) 2.51 ± 0.069.

On to QGFSKDTFELIKTFLVD [YDL116W/NUP84], for which the protein stability index by setting is: (doa10∆) 3.02 ± 0.079; (pdr5∆) 3.26 ± 0.063; (san1∆) 2.75 ± 0.062; (ubr1∆) 3.25 ± 0.043.

As to DNPDQGISDMCRLFFTE [YCS4], the protein stability index was found to be 3.37 ± 0.14 (doa10∆), 3.63 ± 0.15 (pdr5∆), 3.03 ± 0.14 (san1∆) and 3.04 ± 0.15 (ubr1∆).

With EDRNQRIKEMYWKLWID [FAS1], the protein stability index (doa10∆) came to 3.17 ± 0.13, the protein stability index (pdr5∆) was determined as 3.46 ± 0.1, the protein stability index (san1∆) is 3.16 ± 0.11 and the protein stability index (ubr1∆) came out at 3.08 ± 0.087.

Regarding KVLLPSINISCVQLIKC [SWI1], the protein stability index is, setting by setting: (doa10∆) 1.27 ± 0.064; (pdr5∆) 1.47 ± 0.051; (san1∆) 1.17 ± 0.18; (ubr1∆) 1.49 ± 0.051.
